Source: PMC9739478

Biological target: human von Willebrand factor (vWF) (human) (UniProt P04275)

platelet adherence to vWF-coated surface (LDH assay, normalised to PRP only = 100%) in the presence of GPIb-NPs, 1 mg/mL: 72%
platelet adherence to vWF-coated surface (LDH assay, normalised to PRP only = 100%) in the presence of dual-NPs (GPIbα and anti-CD34 HuscFv on one NP), 1 mg/mL: 76%
platelet adherence to vWF-coated surface (LDH assay, normalised to PRP only = 100%) in the presence of free GPIb: 86%
Substance: glycoprotein Ib alpha chain (GPIbα) (from UniProt P07359 17-652) (receptor)
